Reference: PMC5595889

Molecular target: GST-tagged importin α7 lacking the IBB (human)
Assay: pull-down

For “influenza A virus (H1N1 strain A/WSN/33) monomeric nucleoprotein (from UniProt P15682 1-498) (natural protein)”, the quantity recovered relative to importin α1 was 2 fold.
